According to PMC3056017:

Biological target: truncated recombinant mOGT (C-654) (human)

- km for the peptide in the coupled enzyme assay of OGT transglycosylation (double-reciprocal plot; peptide 0.05 to 0.5 mM, UDP-GlcNAc held at 0.5 mM): 0.16 mM
Binder: YSDSPSTST [Peptide (…)]
